# Literature values as cited in US20060289354A1, “Method and composition to control the growth of microorganisms in aqueous systems and on substrates” (Buckman Laboratories International, Inc., priority 2005, published 2006).
# Like-named read-outs stand apart in the source and are kept apart here.
# Conditions: for shelf life: original sealed package
substance,measurement,setting,value
lactoperoxidase [LP],effect of exposure to elevated temperature,>65° C. for short time (10 minutes),denaturation of the protein and loss of the activity
same,shelf life,8° C.,≥ 2 years
same,shelf life,20° C.,at least 1 year
same,optimal pH,typical commercial form,5.0-6.5
